# Reference: patent US20110135657A1 (published 2011)
# Residue numbers refer to the chain shown, from its start.
# B1: 20D4 (antibody, human IgG2, kappa, V domains shown)
# VH: QVQLVQSGAEVKKPGASVKVSCKVSGYTLTDLSMHWVRQAPGKGLEWMGGFDPEDGETIYAQKFQGRITMTEDTSTDTAYMELSSLRSEDTAVYYCASIVVVPAAIQSYYYYYGMGVWGQGTTVTVSS
# VL: DIQLTQSPSSLSASIGDRVTITCRASQDIRYDLGWYQQKPGKAPKRLIYAASSLQSGVPSRFSGSGSGTEFTLTVSSLQPEDFATYYCLQHNSYPLTFGGGTKVEIER
# notes: fully human monoclonal antibody; full chains H12/L12; also called 20D4.1
# B2: 12E4 (antibody, human IgG2, kappa, V domains shown)
# VH: EVQLLESGGGLVQPGGSLRLSCAASRFTFSTYAMSWVRQAPGKGLEWVSGISGSGVSTYYADSVKGRFTISRDNSKNTLYLQMNSLRAEDTAVYYCAKSLIVVIVYALDYWGQGTLVTVSS
# VL: EIVLTQSPGTLSLSPGERATLSCRASQNFDSNYLAWYQQKPGQAPRLLIYGASSRATGIPDNFSGSGSGTDFTLTISRLEPEDFAMYYCQQYGSSPLTFGGGTKVEIKR
# notes: fully human monoclonal antibody; full chains H8/L7; also called 12E4.1
# B3: 26H11 (antibody, human IgG2, kappa, V domains shown)
# VH: B2 VH with S17Y, R26G, G50A, Y59N, I104M, A107V
# VL: B2 VL with N28S, F29V, D30S, S31G, N62R, T103S
# notes: fully human monoclonal antibody; full chains H7/L6; also called 26H11.1
# B4: 17D8 (antibody, human IgG2, kappa, V domains shown)
# VH: B2 VH with S17Y, R26G, G50A, I104M, A107V
# VL: B2 VL with N28S, F29V, D30S, S31G, N62R, M86V, S95A
# B5: 18B11.1 (antibody, human IgG2, kappa, V domains shown)
# VH: EVQLVESGGGLVKPGGSLRLSCAASGFTFSDAWMSWVRQAPGKGLEWVGRIKSKTDGGTTDYAAPVKGRFTISRDDSKNTLYLQMNSLKTEDTAVYFCTSTYSSGWYVWDYYGMDVWGQGTTVTVSS
# VL: DIVMTQSPLSLPVTPGEPASISCRSSQSLLYYNGFTYLDWFLQKPGQSPHLLIYLGSNRASGVPDRFSGSVSGTDFTLKISRVEAEDVGVYYCMQSLQTPFTFGPGTKVDIKR
# notes: fully human monoclonal antibody; full chains H11/L10
# Target: human FGF21 receptor (FGF21R): full length human FGFR1c and full length human β-Klotho co-expressed at the … (human, UniProt P11362 22-822; Q86Z14 53-1044)
# Assay: cell-based or functional assay
row,"Activity (%) = % of FGF21 activity, luciferase reporter, AM-1/D FGFR1c+β-Klotho Luc clone; antibody combined with isotype IgG2k control",Binder
1,12.5 % of FGF21 activity,B1
2,25.4 % of FGF21 activity,B2
3,17.9 % of FGF21 activity,B3

# Target: T1, soluble human FGFR1c/β-Klotho ECD-Fc complex (human)
# T1 construct: Both entries start at residue 1 of the precursors; also called soluble FGF21R; soluble FGF21R-Fc
# Assay: Biacore, antibody immobilized on the sensor chip
# Excerpt: (§1) Soluble human FGFR1c/β-Klotho ECD-Fc complex or β-Klotho was then captured on the immobilized antibody surfaces.
# T1 sequence (chain, as listed by the source limits assumed, chain 1 of 2): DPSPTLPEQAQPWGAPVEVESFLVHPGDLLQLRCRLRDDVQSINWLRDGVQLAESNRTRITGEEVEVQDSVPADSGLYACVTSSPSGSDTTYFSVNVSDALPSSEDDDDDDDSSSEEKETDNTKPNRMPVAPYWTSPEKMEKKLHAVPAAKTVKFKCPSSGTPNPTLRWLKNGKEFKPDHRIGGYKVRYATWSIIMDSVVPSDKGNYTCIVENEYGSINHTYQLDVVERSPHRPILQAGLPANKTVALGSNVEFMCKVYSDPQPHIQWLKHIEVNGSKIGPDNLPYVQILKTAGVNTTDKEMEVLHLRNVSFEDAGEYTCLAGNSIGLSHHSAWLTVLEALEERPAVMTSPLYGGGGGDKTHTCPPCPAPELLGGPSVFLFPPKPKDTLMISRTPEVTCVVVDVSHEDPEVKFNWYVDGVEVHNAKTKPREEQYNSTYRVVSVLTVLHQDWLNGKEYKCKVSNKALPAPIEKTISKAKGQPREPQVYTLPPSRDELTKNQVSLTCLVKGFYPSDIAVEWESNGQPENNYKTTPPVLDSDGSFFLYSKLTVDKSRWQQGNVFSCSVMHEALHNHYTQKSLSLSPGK
# T1 sequence (chain, as listed by the source limits assumed, chain 2 of 2): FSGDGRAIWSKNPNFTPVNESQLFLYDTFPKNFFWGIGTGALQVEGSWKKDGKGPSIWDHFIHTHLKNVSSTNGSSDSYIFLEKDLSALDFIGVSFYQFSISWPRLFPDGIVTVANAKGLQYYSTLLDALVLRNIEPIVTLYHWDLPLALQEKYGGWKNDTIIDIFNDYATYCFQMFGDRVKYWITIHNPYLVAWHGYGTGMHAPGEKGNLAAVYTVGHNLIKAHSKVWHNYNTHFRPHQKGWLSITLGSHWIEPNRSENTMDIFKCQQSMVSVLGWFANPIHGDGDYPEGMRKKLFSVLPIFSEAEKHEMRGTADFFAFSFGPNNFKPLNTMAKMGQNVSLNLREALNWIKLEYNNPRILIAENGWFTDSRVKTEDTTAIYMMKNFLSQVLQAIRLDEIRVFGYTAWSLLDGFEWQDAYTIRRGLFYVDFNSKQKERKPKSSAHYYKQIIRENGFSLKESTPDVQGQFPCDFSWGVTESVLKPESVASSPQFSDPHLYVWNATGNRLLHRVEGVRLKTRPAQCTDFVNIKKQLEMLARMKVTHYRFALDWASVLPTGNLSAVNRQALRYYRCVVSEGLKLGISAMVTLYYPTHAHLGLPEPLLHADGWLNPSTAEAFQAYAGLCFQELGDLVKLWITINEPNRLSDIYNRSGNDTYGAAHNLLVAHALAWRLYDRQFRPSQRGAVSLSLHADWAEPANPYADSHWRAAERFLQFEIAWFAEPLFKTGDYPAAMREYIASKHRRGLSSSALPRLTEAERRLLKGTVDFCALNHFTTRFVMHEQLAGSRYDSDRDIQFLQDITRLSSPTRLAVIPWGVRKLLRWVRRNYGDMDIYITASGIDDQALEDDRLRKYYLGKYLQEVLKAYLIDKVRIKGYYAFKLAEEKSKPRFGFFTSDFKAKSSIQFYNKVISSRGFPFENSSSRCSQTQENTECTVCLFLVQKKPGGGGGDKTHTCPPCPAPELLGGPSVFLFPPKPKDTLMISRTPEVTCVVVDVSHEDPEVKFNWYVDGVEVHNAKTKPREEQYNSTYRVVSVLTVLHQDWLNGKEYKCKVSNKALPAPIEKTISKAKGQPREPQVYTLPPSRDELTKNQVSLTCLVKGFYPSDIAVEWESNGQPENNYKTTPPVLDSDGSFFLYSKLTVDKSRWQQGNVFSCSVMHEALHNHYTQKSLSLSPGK
row,binding result,Binder
1,binds,B4

# Target: T2, denatured human FGFR1c (lysate of CHO cells stably expressing FGF21 receptor, non-reducing SDS-PAGE, blotted) (human, UniProt P11362 22-822)
# T2 construct: DENATURED protein on a Western blot, not the native fold; also called denatured FGFR1c; denatured receptor proteins
# Assay: Western blot of CHO/FGF21 receptor lysate, non-reducing SDS-PAGE (denatured protein)
# Experimental: 20 μl of cell lysate was loaded per lane on adjacent lanes separated with a molecular weight marker lane on 4-20% SDS-PAGE gels. Following electrophoresis, the gels were blotted onto 0.2μ nitrocellulose filters. The blots were treated with Tris-buffered saline/Triton-X (TBST) plus 5% non-fat milk (blocking buffer) for 30 minutes. The blots were then cut along the molecular weight marker lanes. […] Blots were incubated with the antibodies for one hour at room temperature, followed by three washes with TBST+1% milk. The blots were then probed with anti-human or anti-goat IgG-HRP secondary antibodies for 20 min. Blots were given three 15 min. washes with TBST followed by treatment with Pierce Supersignal West Dura developing reagent (1 min.) and exposure to Kodak Biomax X-ray film.
# T2 sequence (P11362 22-822 limits assumed): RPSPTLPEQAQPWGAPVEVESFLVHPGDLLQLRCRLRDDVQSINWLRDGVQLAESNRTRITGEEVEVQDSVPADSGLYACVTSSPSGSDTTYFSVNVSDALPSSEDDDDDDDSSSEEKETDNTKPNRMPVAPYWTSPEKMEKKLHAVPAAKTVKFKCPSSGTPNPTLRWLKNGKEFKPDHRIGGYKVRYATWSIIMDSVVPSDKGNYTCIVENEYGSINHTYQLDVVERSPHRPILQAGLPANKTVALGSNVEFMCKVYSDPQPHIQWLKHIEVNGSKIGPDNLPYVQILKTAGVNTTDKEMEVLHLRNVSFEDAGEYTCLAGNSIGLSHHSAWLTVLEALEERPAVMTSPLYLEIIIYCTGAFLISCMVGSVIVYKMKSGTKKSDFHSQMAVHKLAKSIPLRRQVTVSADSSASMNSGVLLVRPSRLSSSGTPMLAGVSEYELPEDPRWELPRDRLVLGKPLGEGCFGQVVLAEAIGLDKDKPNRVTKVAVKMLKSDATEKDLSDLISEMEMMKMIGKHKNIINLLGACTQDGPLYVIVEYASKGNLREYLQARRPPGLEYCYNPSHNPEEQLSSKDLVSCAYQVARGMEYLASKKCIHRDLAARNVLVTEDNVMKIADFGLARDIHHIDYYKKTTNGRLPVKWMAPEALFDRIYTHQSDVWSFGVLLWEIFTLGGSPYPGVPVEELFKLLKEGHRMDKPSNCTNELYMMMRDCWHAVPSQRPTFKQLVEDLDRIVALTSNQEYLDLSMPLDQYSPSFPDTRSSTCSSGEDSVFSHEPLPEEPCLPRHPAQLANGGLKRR
row,binding result,Binder
1,no binding,B5
2,no binding,B1
3,no binding,B2
4,no binding,B3

# Target: T3, soluble human β-Klotho (Biacore, Example 8) (human, UniProt Q86Z14 53-996, limits assumed)
# T3 construct: also called soluble β-Klotho
# Assay: Biacore competition binning; test antibody injected over soluble receptor captured on immobilized 24H11, 17D8 or 1A2.1
# Excerpt: as §1
row,binding result,Binder
1,binds,B1
2,binds,B2
3,binds,B3
4,binds,B4
